Measurements as given in US20240116985A1 (published 2024).
Starred links: 1 amine or outer side, 2 acyl side, 3 side chain; linkers in the order of their positions; H or OH if unused. Positions of bridges follow the written chain, without caps; N, C: chain ends. Non-standard residues stand in square brackets, D forms with d. Primed or numbered codes have the meaning given here. *: point of attachment. PyrS2″ = (S)-3-amino-1-((pent-4-en-1-yloxy)carbonyl)pyrrolidine-3-carboxylic acid (stapling residue), C=CCCCOC(=O)N1CC[C@@](N[*:1])(C(=O)[*:2])C1; B5(4) = 2,2-bis(4-pentenyl)glycine = 2-amino-2-(pent-4-en-1-yl)hept-6-enoic acid (stitching residue), C=CCCCC(CCCC=C)(N[*:1])C(=O)[*:2]; TfeGA = (S)-2-amino-3-((carboxymethyl)(2,2,2-trifluoroethyl)amino)propanoic acid, O=C([C@H](CN(CC(=O)[*:3])CC(F)(F)F)N[*:1])[*:2]; PyrS2 = (S)-3-amino-1-((pent-4-en-1-yloxy)carbonyl)pyrrolidine-3-carboxylic acid, C=CCCCOC(=O)N1CC[C@@](N[*:1])(C(=O)[*:2])C1; B5(22) = 2-amino-2-(pent-4-en-1-yl)hept-6-enoic acid (two alkene side chains), C=CCCCC(CCCC=C)(N[*:1])C(=O)[*:2]; B5(3) = 2,2-bis(4-pentenyl)glycine (stitching residue), C=CCCCC(CCCC=C)(N[*:1])C(=O)[*:2]; 2F3MeF = Cc1cccc(C[C@H](N[*:1])C(=O)[*:2])c1F; Phe(3-Cl) = N[C@@H](Cc1cccc(Cl)c1)C(=O)O; Phe(2-Br) = N[C@@H](Cc1ccccc1Br)C(=O)O; Phe(2-CN) = N#Cc1ccccc1C[C@H](N)C(=O)O; Phe(2-Cl) = N[C@@H](Cc1ccccc1Cl)C(=O)O; Bta = N[C@@H](Cc1csc2ccccc12)C(=O)O; αAllylPro = C=CC[C@@]1(C(=O)O)CCCN1; tBuAla = CC(C)(C)C[C@H](N)C(=O)O; 3Thi = N[C@@H](Cc1ccsc1)C(=O)O; S8 = C=CCCCCCC[C@](C)(N)C(=O)O; Ms = CS(=O)(=O)*

T1: B-cat-Halo (beta-catenin HaloTag NanoBRET construct expressed in HEK293 cells) (UniProt P35222 1-781, HaloTag NanoBRET 618 Ligand bound to the HaloTag)
T1 sequence (looked up): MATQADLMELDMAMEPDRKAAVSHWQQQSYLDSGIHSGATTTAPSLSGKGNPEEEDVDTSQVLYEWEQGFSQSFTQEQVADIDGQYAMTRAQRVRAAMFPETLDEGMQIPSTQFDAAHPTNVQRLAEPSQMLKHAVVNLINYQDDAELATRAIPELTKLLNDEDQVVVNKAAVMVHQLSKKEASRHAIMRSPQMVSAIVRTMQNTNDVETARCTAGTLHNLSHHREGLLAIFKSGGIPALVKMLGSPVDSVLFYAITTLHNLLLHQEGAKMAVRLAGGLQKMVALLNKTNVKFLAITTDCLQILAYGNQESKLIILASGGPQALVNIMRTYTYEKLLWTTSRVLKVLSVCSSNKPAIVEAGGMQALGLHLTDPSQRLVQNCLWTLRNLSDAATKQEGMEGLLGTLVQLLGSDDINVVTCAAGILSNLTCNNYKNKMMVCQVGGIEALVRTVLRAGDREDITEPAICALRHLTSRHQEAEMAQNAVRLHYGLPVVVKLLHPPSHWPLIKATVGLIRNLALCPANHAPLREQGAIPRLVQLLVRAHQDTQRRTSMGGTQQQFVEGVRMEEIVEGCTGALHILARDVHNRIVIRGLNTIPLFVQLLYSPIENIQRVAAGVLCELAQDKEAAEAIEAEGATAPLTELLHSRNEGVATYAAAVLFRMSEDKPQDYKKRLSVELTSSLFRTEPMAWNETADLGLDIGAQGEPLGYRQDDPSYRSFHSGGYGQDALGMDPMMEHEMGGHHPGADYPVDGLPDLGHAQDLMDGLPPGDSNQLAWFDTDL

T2: B-cat-Halo (beta-catenin HaloTag fusion expressed in HEK293 cells) (UniProt P35222 1-781)
T2 sequence (looked up): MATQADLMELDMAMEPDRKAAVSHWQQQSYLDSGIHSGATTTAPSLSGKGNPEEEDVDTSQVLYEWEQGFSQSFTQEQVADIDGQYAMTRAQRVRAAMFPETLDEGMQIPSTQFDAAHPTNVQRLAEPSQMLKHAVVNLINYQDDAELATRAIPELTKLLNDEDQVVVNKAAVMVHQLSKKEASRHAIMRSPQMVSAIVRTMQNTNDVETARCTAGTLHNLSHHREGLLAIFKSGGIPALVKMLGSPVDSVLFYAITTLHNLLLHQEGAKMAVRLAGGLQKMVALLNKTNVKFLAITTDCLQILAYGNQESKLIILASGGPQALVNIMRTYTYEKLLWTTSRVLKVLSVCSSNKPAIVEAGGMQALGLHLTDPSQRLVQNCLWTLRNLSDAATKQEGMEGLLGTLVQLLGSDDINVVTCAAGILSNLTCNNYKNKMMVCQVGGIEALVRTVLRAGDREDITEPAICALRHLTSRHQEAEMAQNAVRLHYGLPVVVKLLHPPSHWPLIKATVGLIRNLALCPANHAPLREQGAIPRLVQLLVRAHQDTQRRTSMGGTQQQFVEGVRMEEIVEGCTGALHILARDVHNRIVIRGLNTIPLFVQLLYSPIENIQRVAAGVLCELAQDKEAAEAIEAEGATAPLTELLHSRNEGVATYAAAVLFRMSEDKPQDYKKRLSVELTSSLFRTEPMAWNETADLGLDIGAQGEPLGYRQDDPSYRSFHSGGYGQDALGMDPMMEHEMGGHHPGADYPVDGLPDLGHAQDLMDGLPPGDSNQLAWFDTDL

T3: B-cat-Halo (beta-catenin HaloTag NanoBRET construct expressed in HEK293 cells) (UniProt P35222 1-781)
T3 sequence (looked up): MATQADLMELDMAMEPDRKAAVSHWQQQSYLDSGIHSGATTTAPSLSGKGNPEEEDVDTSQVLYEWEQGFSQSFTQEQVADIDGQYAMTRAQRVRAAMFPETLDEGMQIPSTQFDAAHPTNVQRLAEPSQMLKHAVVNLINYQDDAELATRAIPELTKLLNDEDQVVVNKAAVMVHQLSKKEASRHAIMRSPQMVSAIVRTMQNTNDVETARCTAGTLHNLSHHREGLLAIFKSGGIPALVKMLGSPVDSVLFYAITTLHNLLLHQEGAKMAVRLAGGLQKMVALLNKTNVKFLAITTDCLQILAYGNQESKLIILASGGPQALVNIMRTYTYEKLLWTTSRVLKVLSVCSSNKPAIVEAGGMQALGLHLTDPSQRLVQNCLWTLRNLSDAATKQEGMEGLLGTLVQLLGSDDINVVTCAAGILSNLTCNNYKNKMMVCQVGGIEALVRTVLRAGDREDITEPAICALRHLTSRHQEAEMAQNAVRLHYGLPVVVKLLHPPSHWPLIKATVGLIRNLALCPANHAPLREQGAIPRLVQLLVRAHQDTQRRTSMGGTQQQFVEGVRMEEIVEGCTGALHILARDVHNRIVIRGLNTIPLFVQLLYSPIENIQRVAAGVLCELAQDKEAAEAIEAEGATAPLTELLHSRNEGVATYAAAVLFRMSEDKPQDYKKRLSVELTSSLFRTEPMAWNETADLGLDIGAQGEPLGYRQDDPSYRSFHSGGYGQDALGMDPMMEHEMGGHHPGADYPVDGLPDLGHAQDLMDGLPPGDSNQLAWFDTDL

T4: full-length beta-Catenin (Uniprot ID P35222) (Homo sapiens (Human), UniProt P35222 1-781)
T4 construct: also called bCat; B-Catenin
T4 sequence: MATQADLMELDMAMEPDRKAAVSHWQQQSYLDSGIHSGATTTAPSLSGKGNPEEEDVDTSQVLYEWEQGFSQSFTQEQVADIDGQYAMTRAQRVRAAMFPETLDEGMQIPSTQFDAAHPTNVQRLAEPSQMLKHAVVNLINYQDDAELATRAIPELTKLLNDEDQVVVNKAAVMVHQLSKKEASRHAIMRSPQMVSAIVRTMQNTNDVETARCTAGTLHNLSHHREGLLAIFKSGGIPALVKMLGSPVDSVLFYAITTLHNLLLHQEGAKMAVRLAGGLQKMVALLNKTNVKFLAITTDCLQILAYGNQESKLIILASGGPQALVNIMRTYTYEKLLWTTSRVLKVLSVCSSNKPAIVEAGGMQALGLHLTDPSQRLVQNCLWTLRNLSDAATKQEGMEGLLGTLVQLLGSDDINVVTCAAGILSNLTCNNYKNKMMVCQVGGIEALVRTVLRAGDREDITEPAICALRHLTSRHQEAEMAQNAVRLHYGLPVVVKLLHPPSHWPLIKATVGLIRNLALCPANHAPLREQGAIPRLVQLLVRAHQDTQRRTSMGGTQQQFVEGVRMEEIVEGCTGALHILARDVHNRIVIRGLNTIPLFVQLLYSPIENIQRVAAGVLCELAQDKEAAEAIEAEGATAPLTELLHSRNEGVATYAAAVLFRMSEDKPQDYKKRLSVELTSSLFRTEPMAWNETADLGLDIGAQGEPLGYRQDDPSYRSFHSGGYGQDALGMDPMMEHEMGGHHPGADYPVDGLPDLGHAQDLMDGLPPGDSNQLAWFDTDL


target: T1, B-cat-Halo (beta-catenin HaloTag …); assay: cell-based or functional assay

Row | Binder | NanoBRET Abs IC50 [µM]
1 | Ac-[αAllylPro]D[tBuAla][B5(22)]D[TfeGA]AAFN[S8][2F3MeF][Bta]Q-NH2 (staple 1-4, 4-11) [I-934] | 19.2
2 | Ac-[αAllylPro]D[tBuAla][B5(22)]DDAAFN[PyrS2][3Thi][Bta]QK(PropynPEG2)-NH2 (staple 1-4, 4-11) [I-936] | 22.2
3 | Ac-[αAllylPro]D[tBuAla][B5(22)]DDAAFN[PyrS2][3Thi][Bta]QK(PropynPEG1)-NH2 (staple 1-4, 4-11) [I-935] | 33.1
4 | Ac-[αAllylPro]D[tBuAla][B5(22)]D[TfeGA]AAFN[S8][Phe(2-Br)][Bta]Q-NH2 (staple 1-4, 4-11) [I-932] | 11.4
5 | Ac-[αAllylPro]D[tBuAla][B5(22)]DDAAFN[PyrS2][3Thi][Bta]QK-NH2 (staple 1-4, 4-11) [I-939] | 25.1
6 | Ac-[αAllylPro]D[tBuAla][B5(3)]D[TfeGA]AAFT[S8][Phe(2-Cl)][Bta]Q-NH2 (staple 1-4, 4-11) [I-930] | 13.5
7 | Ac-[αAllylPro]D[tBuAla][B5(22)]D[TfeGA]AAFN[S8][Phe(3-Cl)][Bta]Q-NH2 (staple 1-4, 4-11) [I-933] | 22.2

target: T2, B-cat-Halo (beta-catenin HaloTag fusion …); assay: cell-based or functional assay

Row | Binder | NanoBRET Abs IC50 [µM]
8 | Ac-[αAllylPro]D[tBuAla][B5(3)]NDAAFN[PyrS2″][3Thi][Bta]Q-NH2 (staple 1-4, 4-11) [Ac-PL3-Asp-Npg-B5-Asn-Asp-Ala-Ala-Phe-Asn-PyrS2-3Thi-BztA-Gln-NH2] | 27.8
9 | Ms-[αAllylPro]D[tBuAla][B5(3)]DDAAFN[PyrS2″][3Thi][Bta]Q-NH2 (staple 1-4, 4-11) [MeSO2-PL3-Asp-Npg-B5-Asp-Asp-Ala-Ala-Phe-Asn-PyrS2-3Thi-BztA-Gln-NH2] | > 20
10 | Ac-[αAllylPro]N[tBuAla][B5(3)]DDAAFL[PyrS2″][3Thi][Bta]Q-NH2 (staple 1-4, 4-11) [Ac-PL3-Asn-Npg-B5-Asp-Asp-Ala-Ala-Phe-Leu-PyrS2-3Thi-BztA-Gln-NH2] | 23.4
11 | Ac-[αAllylPro]D[tBuAla][B5(3)]NDAAFL[PyrS2″][3Thi][Bta]Q-NH2 (staple 1-4, 4-11) [Ac-PL3-Asp-Npg-B5-Asn-Asp-Ala-Ala-Phe-Leu-PyrS2-3Thi-BztA-Gln-NH2] | 7.5
12 | Ac-[αAllylPro]D[tBuAla][B5(3)]DDAAFL[PyrS2″][Phe(2-CN)][Bta]Q-NH2 (staple 1-4, 4-11) [Ac-PL3-Asp-Npg-B5-Asp-Asp-Ala-Ala-Phe-Leu-PyrS2-2CNF-BztA-Gln-NH2] | 10
13 | Ac-[αAllylPro]N[tBuAla][B5(3)]DDAAFN[PyrS2″][3Thi][Bta]Q-NH2 (staple 1-4, 4-11) [Ac-PL3-Asn-Npg-B5-Asp-Asp-Ala-Ala-Phe-Asn-PyrS2-3Thi-BztA-Gln-NH2] | 17.3
14 | Ms-[αAllylPro]D[tBuAla][B5(3)]D[TfeGA]AAFN[PyrS2″][3Thi][Bta]Q-NH2 (staple 1-4, 4-11) [MeSO2-PL3-Asp-Npg-B5-Asp-TfeGA-Ala-Ala-Phe-Asn-PyrS2-3Thi-BztA-Gln-NH2] | > 20

target: T3, B-cat-Halo (beta-catenin HaloTag …); assay: cell-based or functional assay

Row | Binder | NanoBRET Abs IC50 [µM]
15 | Ac-[αAllylPro]D[tBuAla][B5(4)]DEAAFQ[S8]F[Bta]Q-NH2 (staple 1-4, 4-11) [I-544] | 4.6
16 | Ac-[αAllylPro]DL[B5(4)]DEAAFN[S8]F[Bta]H-NH2 (staple 1-4, 4-11) [I-543] | 17

target: T4, full-length beta-Catenin (Uniprot ID …); assay: fluorescence polarization competition; full-length beta-catenin with 5FAM-labeled TCF4 residues 10-53 probe as competitor
Description: The plate was incubated protected from light for 60 minutes at 20° C. prior to read. Reads were performed on a CLARIOstar plate reader (BMG Labtech) in duplicate, and data were fitted to a 1:1 binding model with hill slope using an in-house script. All provided concentrations are final concentrations.

Row | Binder | IC50 [µM]
17 | Ac-[αAllylPro]DL[B5(4)]DEAAFN[S8]F[Bta]H-NH2 (staple 1-4, 4-11) [I-543] | 0.032
